Reference: PMC10992996, “Human CRB1 and CRB2 form homo- and heteromeric protein complexes in the retina” (Life Science Alliance, 2024)

Biological target: T1, CRB1-FLAG p.G1103R (human, UniProt P82279 26-1406, p.G1103R)
T1 construct: Crumbs homolog 1, canonical form, human, cDNA NM_202153 as printed, with a patient missense mutation in the last laminin G domain; Made by site-directed mutagenesis of m1; also called CRB1 p.G1103R; CRB1-FLAG MT; source: HEK293T, transfected, in lysate; not shown: Strep-Strep-FLAG, N-terminal, kept
T1 sequence (looked up): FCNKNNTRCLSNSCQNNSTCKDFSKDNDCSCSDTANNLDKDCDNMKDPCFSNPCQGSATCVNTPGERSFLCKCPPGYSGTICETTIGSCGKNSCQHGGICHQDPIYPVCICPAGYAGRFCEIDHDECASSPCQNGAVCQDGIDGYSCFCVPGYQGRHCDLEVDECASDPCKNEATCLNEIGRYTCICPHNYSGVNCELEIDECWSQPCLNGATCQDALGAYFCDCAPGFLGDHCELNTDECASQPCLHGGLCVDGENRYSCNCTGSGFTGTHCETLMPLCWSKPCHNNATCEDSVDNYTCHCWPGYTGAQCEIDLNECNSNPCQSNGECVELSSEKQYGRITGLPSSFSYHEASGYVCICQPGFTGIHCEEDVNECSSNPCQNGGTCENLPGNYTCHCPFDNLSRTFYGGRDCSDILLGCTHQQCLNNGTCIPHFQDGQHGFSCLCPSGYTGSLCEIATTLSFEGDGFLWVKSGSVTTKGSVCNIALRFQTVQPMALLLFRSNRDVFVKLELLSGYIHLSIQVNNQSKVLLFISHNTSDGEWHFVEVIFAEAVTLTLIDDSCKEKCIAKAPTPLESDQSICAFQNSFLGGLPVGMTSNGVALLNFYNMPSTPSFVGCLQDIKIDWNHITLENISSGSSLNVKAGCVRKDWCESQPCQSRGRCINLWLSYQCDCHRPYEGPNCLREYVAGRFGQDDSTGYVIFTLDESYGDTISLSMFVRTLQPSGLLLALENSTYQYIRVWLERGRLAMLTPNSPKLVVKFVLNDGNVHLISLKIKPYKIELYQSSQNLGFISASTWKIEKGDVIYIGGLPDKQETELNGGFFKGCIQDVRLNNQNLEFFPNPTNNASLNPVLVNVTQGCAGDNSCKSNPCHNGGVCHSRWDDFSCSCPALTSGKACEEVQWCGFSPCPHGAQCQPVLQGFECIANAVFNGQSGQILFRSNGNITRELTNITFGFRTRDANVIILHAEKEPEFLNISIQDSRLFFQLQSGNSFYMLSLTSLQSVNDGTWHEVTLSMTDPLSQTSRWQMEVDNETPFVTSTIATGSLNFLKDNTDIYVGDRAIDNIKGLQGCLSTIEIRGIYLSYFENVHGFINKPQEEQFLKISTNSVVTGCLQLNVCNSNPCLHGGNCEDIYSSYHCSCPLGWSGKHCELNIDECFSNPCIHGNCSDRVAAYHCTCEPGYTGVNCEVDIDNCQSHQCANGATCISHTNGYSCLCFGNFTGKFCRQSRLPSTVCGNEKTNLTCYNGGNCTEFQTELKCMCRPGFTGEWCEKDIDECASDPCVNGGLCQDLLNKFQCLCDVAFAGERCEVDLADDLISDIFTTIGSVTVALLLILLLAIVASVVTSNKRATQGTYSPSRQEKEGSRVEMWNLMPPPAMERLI
Experiment: co-IP; HEK293T cells co-transfected pairwise with a FLAG and an HA construct, 48 h; lysis in TBS (30 mM Tris-HCl pH 7.4, 150 mM NaCl) with 0.5% Nonidet P40; FLAG-IP on ANTI-FLAG M2 Affinity Gel 60-90 min at 4°C, elution with FLAG peptide; Western blot with HA and FLAG antibodies; for mutants HA/FLAG signal in eluates relative to WT, three biological replicates
Conditions: partners not purified

percent reduction of the interaction relative to CRB1 WT: ~30%
B1: Human canonical CRB2 (Crumbs homolog 2) (natural protein)
chain: not shown
notes: Crumbs homolog 2, human, cDNA NM_173689; Stood as bait (FLAG copy) and as prey (HA copy) in the pairwise co-IP matrix; each copy carries only one of the two tags; The FLAG copy was the bait of the mass spectrometry pull-downs; also called CRB2-FLAG; CRB2-HA; source: HEK293T, transfected, in lysate (co-IP); HEK293T, transfected, FLAG-IP on beads, washed and purified with 0.01% SDS (retina …)
